Assay results as given in patent publication US20140087995A1 (published 2014).
Numbered stars: 1 amine (or outer) side, 2 acyl side, 3 side chain; on linkers, the order of the positions; unused ones are H or OH. Bridge positions count the residues as written; N and C are the ends. Side chains are listed from the residue outwards. Ends that are not written are not given here. * marks the point of attachment. C20 diacid = O=C(O)CCCCCCCCCCCCCCCCCCC(=O)*; γGlu = O=C(O)[C@H](CCC(=O)[*:2])N[*:1]; AEEA = NCCOCCOCC(=O)O

T1: human amylin receptor (amylin 3(a) receptor: human calcitonin receptor with RAMP-3) (human, UniProt P30988 25-474; O60896 24-148)
T1 construct: whole, on cells; also called hAmylin-R; hAmylinR
T1 sequence (looked up) 1: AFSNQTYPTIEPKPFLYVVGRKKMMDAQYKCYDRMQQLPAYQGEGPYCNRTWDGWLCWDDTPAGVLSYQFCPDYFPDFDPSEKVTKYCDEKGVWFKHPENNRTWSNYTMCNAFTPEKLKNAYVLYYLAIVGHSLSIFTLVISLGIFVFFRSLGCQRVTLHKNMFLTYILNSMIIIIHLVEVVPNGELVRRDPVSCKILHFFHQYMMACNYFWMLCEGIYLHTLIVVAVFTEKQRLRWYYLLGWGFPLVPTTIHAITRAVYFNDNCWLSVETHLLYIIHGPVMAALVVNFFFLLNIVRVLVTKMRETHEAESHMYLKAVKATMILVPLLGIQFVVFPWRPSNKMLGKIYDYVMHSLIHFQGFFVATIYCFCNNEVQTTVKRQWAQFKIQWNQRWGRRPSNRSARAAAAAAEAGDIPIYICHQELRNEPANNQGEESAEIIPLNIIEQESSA
T1 sequence (looked up) 2: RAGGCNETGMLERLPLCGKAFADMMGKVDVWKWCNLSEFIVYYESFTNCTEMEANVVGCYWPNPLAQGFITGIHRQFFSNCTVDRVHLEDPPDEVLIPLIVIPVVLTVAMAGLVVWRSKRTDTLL

B1: N^ε1-[2-[2-[2-(19-carboxynonadecanoylamino)ethoxy]ethoxy]acetyl]-[Arg17,Pro21,Pro27,His34]-h-amylin (peptide)
peptide: K([AEEA-C20 diacid])CNTATCATQRLANFLRHSSPNFGAIPSSTNVGHNTY-NH2
modifications: disulfide 2-7; N-terminus assumed
SMILES: CC[C@H](C)[C@H](NC(=O)[C@H](C)NC(=O)CNC(=O)[C@H](Cc1ccccc1)NC(=O)[C@H](CC(N)=O)NC(=O)[C@@H]1CCCN1C(=O)[C@H](CO)NC(=O)[C@H](CO)NC(=O)[C@H](Cc1c[nH]cn1)NC(=O)[C@H](CCCNC(=N)N)NC(=O)[C@H](CC(C)C)NC(=O)[C@H](Cc1ccccc1)NC(=O)[C@H](CC(N)=O)NC(=O)[C@H](C)NC(=O)[C@H](CC(C)C)NC(=O)[C@H](CCCNC(=N)N)NC(=O)[C@H](CCC(N)=O)NC(=O)[C@@H](NC(=O)[C@H](C)NC(=O)[C@@H]1CSSC[C@H](NC(=O)[C@@H](N)CCCCNC(=O)COCCOCCNC(=O)CCCCCCCCCCCCCCCCCCC(=O)O)C(=O)N[C@@H](CC(N)=O)C(=O)N[C@@H]([C@@H](C)O)C(=O)N[C@@H](C)C(=O)N[C@@H]([C@@H](C)O)C(=O)N1)[C@@H](C)O)C(=O)N1CCC[C@H]1C(=O)N[C@@H](CO)C(=O)N[C@@H](CO)C(=O)N[C@H](C(=O)N[C@@H](CC(N)=O)C(=O)N[C@H](C(=O)NCC(=O)N[C@@H](Cc1c[nH]cn1)C(=O)N[C@@H](CC(N)=O)C(=O)N[C@H](C(=O)N[C@@H](Cc1ccc(O)cc1)C(N)=O)[C@@H](C)O)C(C)C)[C@@H](C)O
notes: also called 91; compound 91
B2: N^ε1-[2-[2-[2-[[2-[2-[2-[[(4S)-4-carboxy-4-(19-carboxynonadecanoylamino)butanoyl]amino]ethoxy]ethoxy]acetyl]amino]ethoxy]ethoxy]acetyl]-[Arg17,Pro21,Pro27,Pro31 … (peptide)
peptide: K([AEEA-AEEA-γGlu-C20 diacid])CNTATCATQRLANFLRHSSPNFGAIPSSTPVGSNTY-NH2
modifications: disulfide 2-7; N-terminus assumed
SMILES: CC[C@H](C)[C@H](NC(=O)[C@H](C)NC(=O)CNC(=O)[C@H](Cc1ccccc1)NC(=O)[C@H](CC(N)=O)NC(=O)[C@@H]1CCCN1C(=O)[C@H](CO)NC(=O)[C@H](CO)NC(=O)[C@H](Cc1c[nH]cn1)NC(=O)[C@H](CCCNC(=N)N)NC(=O)[C@H](CC(C)C)NC(=O)[C@H](Cc1ccccc1)NC(=O)[C@H](CC(N)=O)NC(=O)[C@H](C)NC(=O)[C@H](CC(C)C)NC(=O)[C@H](CCCNC(=N)N)NC(=O)[C@H](CCC(N)=O)NC(=O)[C@@H](NC(=O)[C@H](C)NC(=O)[C@@H]1CSSC[C@H](NC(=O)[C@@H](N)CCCCNC(=O)COCCOCCNC(=O)COCCOCCNC(=O)CC[C@H](NC(=O)CCCCCCCCCCCCCCCCCCC(=O)O)C(=O)O)C(=O)N[C@@H](CC(N)=O)C(=O)N[C@@H]([C@@H](C)O)C(=O)N[C@@H](C)C(=O)N[C@@H]([C@@H](C)O)C(=O)N1)[C@@H](C)O)C(=O)N1CCC[C@H]1C(=O)N[C@@H](CO)C(=O)N[C@@H](CO)C(=O)N[C@H](C(=O)N1CCC[C@H]1C(=O)N[C@H](C(=O)NCC(=O)N[C@@H](CO)C(=O)N[C@@H](CC(N)=O)C(=O)N[C@H](C(=O)N[C@@H](Cc1ccc(O)cc1)C(N)=O)[C@@H](C)O)C(C)C)[C@@H](C)O
notes: also called 96; compound 96
B3: N^ε1-[2-[2-[2-[[2-[2-[2-[[(4S)-4-carboxy-4-(19-carboxynonadecanoylamino)butanoyl]amino]ethoxy]ethoxy]acetyl]amino]ethoxy]ethoxy]acetyl]-[Arg17,Pro21,Pro27,Arg34 … (peptide)
peptide: K([AEEA-AEEA-γGlu-C20 diacid])CNTATCATQRLANFLRHSSPNFGAIPSSTNVGRNTY-NH2
modifications: disulfide 2-7; N-terminus assumed
SMILES: CC[C@H](C)[C@H](NC(=O)[C@H](C)NC(=O)CNC(=O)[C@H](Cc1ccccc1)NC(=O)[C@H](CC(N)=O)NC(=O)[C@@H]1CCCN1C(=O)[C@H](CO)NC(=O)[C@H](CO)NC(=O)[C@H](Cc1c[nH]cn1)NC(=O)[C@H](CCCNC(=N)N)NC(=O)[C@H](CC(C)C)NC(=O)[C@H](Cc1ccccc1)NC(=O)[C@H](CC(N)=O)NC(=O)[C@H](C)NC(=O)[C@H](CC(C)C)NC(=O)[C@H](CCCNC(=N)N)NC(=O)[C@H](CCC(N)=O)NC(=O)[C@@H](NC(=O)[C@H](C)NC(=O)[C@@H]1CSSC[C@H](NC(=O)[C@@H](N)CCCCNC(=O)COCCOCCNC(=O)COCCOCCNC(=O)CC[C@H](NC(=O)CCCCCCCCCCCCCCCCCCC(=O)O)C(=O)O)C(=O)N[C@@H](CC(N)=O)C(=O)N[C@@H]([C@@H](C)O)C(=O)N[C@@H](C)C(=O)N[C@@H]([C@@H](C)O)C(=O)N1)[C@@H](C)O)C(=O)N1CCC[C@H]1C(=O)N[C@@H](CO)C(=O)N[C@@H](CO)C(=O)N[C@H](C(=O)N[C@@H](CC(N)=O)C(=O)N[C@H](C(=O)NCC(=O)N[C@@H](CCCNC(=N)N)C(=O)N[C@@H](CC(N)=O)C(=O)N[C@H](C(=O)N[C@@H](Cc1ccc(O)cc1)C(N)=O)[C@@H](C)O)C(C)C)[C@@H](C)O
notes: also called 95; compound 95
B4: N^ε1-[2-[2-[2-[[2-[2-[2-[[(4S)-4-carboxy-4-(19-carboxynonadecanoylamino)butanoyl]amino]ethoxy]ethoxy]acetyl]amino]ethoxy]ethoxy]acetyl]-[Arg17,Pro21,Pro27,His34 … (peptide)
peptide: K([AEEA-AEEA-γGlu-C20 diacid])CNTATCATQRLANFLRHSSPNFGAIPSSTNVGHNTY-NH2
modifications: disulfide 2-7; N-terminus assumed
SMILES: CC[C@H](C)[C@H](NC(=O)[C@H](C)NC(=O)CNC(=O)[C@H](Cc1ccccc1)NC(=O)[C@H](CC(N)=O)NC(=O)[C@@H]1CCCN1C(=O)[C@H](CO)NC(=O)[C@H](CO)NC(=O)[C@H](Cc1c[nH]cn1)NC(=O)[C@H](CCCNC(=N)N)NC(=O)[C@H](CC(C)C)NC(=O)[C@H](Cc1ccccc1)NC(=O)[C@H](CC(N)=O)NC(=O)[C@H](C)NC(=O)[C@H](CC(C)C)NC(=O)[C@H](CCCNC(=N)N)NC(=O)[C@H](CCC(N)=O)NC(=O)[C@@H](NC(=O)[C@H](C)NC(=O)[C@@H]1CSSC[C@H](NC(=O)[C@@H](N)CCCCNC(=O)COCCOCCNC(=O)COCCOCCNC(=O)CC[C@H](NC(=O)CCCCCCCCCCCCCCCCCCC(=O)O)C(=O)O)C(=O)N[C@@H](CC(N)=O)C(=O)N[C@@H]([C@@H](C)O)C(=O)N[C@@H](C)C(=O)N[C@@H]([C@@H](C)O)C(=O)N1)[C@@H](C)O)C(=O)N1CCC[C@H]1C(=O)N[C@@H](CO)C(=O)N[C@@H](CO)C(=O)N[C@H](C(=O)N[C@@H](CC(N)=O)C(=O)N[C@H](C(=O)NCC(=O)N[C@@H](Cc1c[nH]cn1)C(=O)N[C@@H](CC(N)=O)C(=O)N[C@H](C(=O)N[C@@H](Cc1ccc(O)cc1)C(N)=O)[C@@H](C)O)C(C)C)[C@@H](C)O
notes: also called 97; compound 97
B5: N^ε1-[2-[2-[2-[[2-[2-[2-[[(4S)-4-carboxy-4-(19-carboxynonadecanoylamino)butanoyl]amino]ethoxy]ethoxy]acetyl]amino]ethoxy]ethoxy]acetyl]-[Arg17,Pro21,Pro27,Glu35 … (peptide)
peptide: K([AEEA-AEEA-γGlu-C20 diacid])CNTATCATQRLANFLRHSSPNFGAIPSSTNVGSETY-NH2
modifications: disulfide 2-7; N-terminus assumed
SMILES: CC[C@H](C)[C@H](NC(=O)[C@H](C)NC(=O)CNC(=O)[C@H](Cc1ccccc1)NC(=O)[C@H](CC(N)=O)NC(=O)[C@@H]1CCCN1C(=O)[C@H](CO)NC(=O)[C@H](CO)NC(=O)[C@H](Cc1c[nH]cn1)NC(=O)[C@H](CCCNC(=N)N)NC(=O)[C@H](CC(C)C)NC(=O)[C@H](Cc1ccccc1)NC(=O)[C@H](CC(N)=O)NC(=O)[C@H](C)NC(=O)[C@H](CC(C)C)NC(=O)[C@H](CCCNC(=N)N)NC(=O)[C@H](CCC(N)=O)NC(=O)[C@@H](NC(=O)[C@H](C)NC(=O)[C@@H]1CSSC[C@H](NC(=O)[C@@H](N)CCCCNC(=O)COCCOCCNC(=O)COCCOCCNC(=O)CC[C@H](NC(=O)CCCCCCCCCCCCCCCCCCC(=O)O)C(=O)O)C(=O)N[C@@H](CC(N)=O)C(=O)N[C@@H]([C@@H](C)O)C(=O)N[C@@H](C)C(=O)N[C@@H]([C@@H](C)O)C(=O)N1)[C@@H](C)O)C(=O)N1CCC[C@H]1C(=O)N[C@@H](CO)C(=O)N[C@@H](CO)C(=O)N[C@H](C(=O)N[C@@H](CC(N)=O)C(=O)N[C@H](C(=O)NCC(=O)N[C@@H](CO)C(=O)N[C@@H](CCC(=O)O)C(=O)N[C@H](C(=O)N[C@@H](Cc1ccc(O)cc1)C(N)=O)[C@@H](C)O)C(C)C)[C@@H](C)O
notes: also called 25; compound 25
B6: N^ε1-[2-[2-[2-(19-carboxynonadecanoylamino)ethoxy]ethoxy]acetyl]-[His14,Arg17,Pro21,Pro27]-h-amylin (peptide)
peptide: K([AEEA-C20 diacid])CNTATCATQRLAHFLRHSSPNFGAIPSSTNVGSNTY-NH2
modifications: disulfide 2-7; N-terminus assumed
SMILES: CC[C@H](C)[C@H](NC(=O)[C@H](C)NC(=O)CNC(=O)[C@H](Cc1ccccc1)NC(=O)[C@H](CC(N)=O)NC(=O)[C@@H]1CCCN1C(=O)[C@H](CO)NC(=O)[C@H](CO)NC(=O)[C@H](Cc1c[nH]cn1)NC(=O)[C@H](CCCNC(=N)N)NC(=O)[C@H](CC(C)C)NC(=O)[C@H](Cc1ccccc1)NC(=O)[C@H](Cc1c[nH]cn1)NC(=O)[C@H](C)NC(=O)[C@H](CC(C)C)NC(=O)[C@H](CCCNC(=N)N)NC(=O)[C@H](CCC(N)=O)NC(=O)[C@@H](NC(=O)[C@H](C)NC(=O)[C@@H]1CSSC[C@H](NC(=O)[C@@H](N)CCCCNC(=O)COCCOCCNC(=O)CCCCCCCCCCCCCCCCCCC(=O)O)C(=O)N[C@@H](CC(N)=O)C(=O)N[C@@H]([C@@H](C)O)C(=O)N[C@@H](C)C(=O)N[C@@H]([C@@H](C)O)C(=O)N1)[C@@H](C)O)C(=O)N1CCC[C@H]1C(=O)N[C@@H](CO)C(=O)N[C@@H](CO)C(=O)N[C@H](C(=O)N[C@@H](CC(N)=O)C(=O)N[C@H](C(=O)NCC(=O)N[C@@H](CO)C(=O)N[C@@H](CC(N)=O)C(=O)N[C@H](C(=O)N[C@@H](Cc1ccc(O)cc1)C(N)=O)[C@@H](C)O)C(C)C)[C@@H](C)O
notes: also called 90; compound 90

Each binder was assayed against T1, human amylin receptor (amylin 3(a) …) (assay: SPA displacement of 125I-rat amylin, hAmylin 3(a) receptor membranes).
Outline: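 SPA beads + BHK amylin 3(a)/CRE-luc membranes, 35 ng/μL final; buffer 50 mM Hepes pH 7.4, 1 mM CaCl2, 5 mM MgCl₂, 0.1% OA, 0.02% Tween20. 120 min, 25° C, shaken; scintillation count. IC₅₀ by one-site binding competition fit, taken as receptor affinity.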

Q: For B1, which IC50 is on record?
A: Its IC50 is 0.119 nM.

Q: B2 was tested. Which IC50 did it give?
A: Its IC50 is 0.166 nM.

Q: B3 was tested. Which IC50 did it give?
A: Its IC50 is 0.967 nM.

Q: With B4 as the binder, how does the IC50 read?
A: Its IC50 is 0.568 nM.

Q: B5 was tested. Which IC50 did it give?
A: The IC50 was 0.768 nM.

Q: How did the IC50 turn out when B6 was run?
A: The IC50 was 0.061 nM.
